Assay results taken from US20240317847A1 (Bayer, published 2024).
Residue numbers refer to the chain shown, from its start. Values belong to the binder of their own block, whether it stands above or below them.

What was measured:
murine IL-11 [1] = biological target: T1, murine IL-11 (mouse, UniProt P47873 22-199); test: Di-complex ELISA, competitor canine IL11RA-Fc on coated IL-11;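 for Efficacy (%): signal drop relative to signal at lowest antibody concentration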
T1 construct: Invigate, e.g. lot #C210819-09; biotinylated where coated in the ELISA; also called mIL-11; mIL11
T1 sequence: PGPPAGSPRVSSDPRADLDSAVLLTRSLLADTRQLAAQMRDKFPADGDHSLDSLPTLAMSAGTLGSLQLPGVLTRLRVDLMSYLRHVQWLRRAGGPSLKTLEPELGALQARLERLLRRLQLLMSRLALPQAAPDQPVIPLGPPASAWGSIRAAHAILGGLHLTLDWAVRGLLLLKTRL
Experimental: (§1) The assay is performed using streptavidin coated microtiter plates (Greiner bio-one, #781997). In a first step, 10 nM biotinylated mouse IL-11 (Invigate, Germany, e.g., lot #C210819-09) or human IL-11 (Invigate, Germany, e.g., lot #C121021-19) is coated in 25 μl PBS on the plate at 4° C. overnight. Next day, the plate is washed three times with 50 μl PBST and then blocked with 50 μl SmartBlock (Candor, #113125) for one hour at room temperature (RT). After additional three washes with PBST, 25 μl of a mixture of the murine anti IL-11 antibody and recombinant canine IL11RA-Fc fusion protein (Sino Biological, #70078-D02H) in PBS-T, 10% Smartblock are added simultaneously to the plate and incubated for one hour at RT. […] After three additional washes with PBS-T, 25 μl anti-human-POD (Sigma, #A0170) in PBS-T, 10% Smartblock is added and incubated for 1 hour at RT. After a final three washes with PBS-T, 25 μl AmplexRed (Fisher Scientific, A12222), 1/1000 in PBS, 0,003% H₂O₂, is added as substrate and incubated for 15 min at RT in the dark. Then, the fluorescence is measured with a plate reader at 535/595 nm. Signals from dose responses were used to calculate IC50 values (GraphPad Prism). Efficacy was calculated as [(signal measured at lowest antibody concentration−signal measured at the highest antibody concentration)×100] divided by (signal measured at lowest antibody concentration−signal measured in the absence of IL11Ra).
(§2) IgG converted antibodies were subjected to the experimental assay procedure described in Example 18.

human IL-11 [2] = biological target: T2, human IL-11 (human, UniProt P20809 22-199); test: as above
T2 construct: Invigate, e.g. lot #C121021-19; biotinylated where coated in the ELISA; also called hIL-11; hIL11
T2 sequence: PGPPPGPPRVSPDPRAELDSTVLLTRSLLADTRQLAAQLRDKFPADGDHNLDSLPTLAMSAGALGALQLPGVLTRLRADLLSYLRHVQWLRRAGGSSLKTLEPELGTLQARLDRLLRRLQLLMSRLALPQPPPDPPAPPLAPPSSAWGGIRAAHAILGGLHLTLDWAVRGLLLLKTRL
Experimental: as §1, §2

murine IL-11 [3] = biological target: T1, murine IL-11; test: SPR 37 C, antibody captured, IL-11 as analyte
Experimental: (§3) To assess the binding kinetics and affinity of anti-IL-11 antibodies as well as their species cross-reactivity profile, binding assays were conducted using surface plasmon resonance (SPR). Binding assays were performed on a Biacore T200 instrument or on a Biacore 8K+ instrument (Cytiva) at 37° C. using assay buffer HBS EP+, 300 mM NaCl, 1 mg/ml BSA, 0.05% NaN3. Antibodies were captured either via anti-human Fc IgGs (“Human antibody capture kit”, Order No. BR100839, Cytiva) or via anti-mouse Fc IgGs (“Mouse antibody capture kit, Order No. BR100383, Cytiva) covalently amine coupled to a Series S CM5 sensor chip (Cytiva) depending on the isotype. The amine coupling was carried out according to the manufacturer's instructions using 1-ethyl-3-(3-dimethylaminopropyl) carbodiimide hydrochloride (EDC), N-hydroxysuccinimide (NHS) and ethanolamine HCl, pH 8.5 (“Amine Coupling Kit” BR-1000-50, Cytiva.). Human, mouse, cynomolgus or rat IL-11 was used as analyte at several dilutions within the concentration range from 0.05-200 nM. For binding assays with only one concentration 200 nM IL-11 was used. The sensor surface was regenerated with glycine pH 1.7 after each antigen injection. Obtained sensorgrams were double referenced (subtraction of reference flow cell signal and buffer injection) and were fitted to a 1:1 Langmuir binding model to derive kinetic data using the Biacore T200 Evaluation software or the Biacore Insight software. If no value is reported, there was either no binding or very low binding and multiphasic binding behavior. Values below 1E-12 were considered to be below the dynamic range of the instrument and set to <1E-12.

rat IL-11 [4] = biological target: T3, rat IL-11 (rat, UniProt Q99MF5 22-199); test: SPR 37 C, antibody captured, IL-11 as analyte
T3 construct: Invigate, e.g. lot #C301019-19; also called rIL11
T3 sequence: T1 sequence with S50N, L84F, G94A, V137A, I138V
Experimental: as §3

cynomolgus IL-11 [5] = biological target: T4, cynomolgus IL-11 (cynomolgus, UniProt P20808 22-199); test: SPR 37 C, antibody captured, IL-11 as analyte
T4 construct: Invigate, lot #C290621-19; also called cIL11; cynoL-11
T4 sequence: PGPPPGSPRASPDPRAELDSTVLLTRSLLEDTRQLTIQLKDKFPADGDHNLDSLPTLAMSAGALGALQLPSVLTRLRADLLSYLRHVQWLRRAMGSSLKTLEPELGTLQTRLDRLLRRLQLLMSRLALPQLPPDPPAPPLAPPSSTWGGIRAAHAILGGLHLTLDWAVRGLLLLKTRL
Experimental: as §3

human IL-11 [6] = biological target: T2, human IL-11; test: SPR 37 C, antibody captured, IL-11 as analyte
Experimental: as §3

murine IL-11 [7] = biological target: T1, murine IL-11; test: cell-based or functional assay
rat IL-11 [8] = biological target: T3, rat IL-11; test: cell-based or functional assay
cynomolgus IL-11 [9] = biological target: T4, cynomolgus IL-11; test: cell-based or functional assay
human IL-11 [10] = biological target: T2, human IL-11; test: cell-based or functional assay
murine IL-11 [11] = biological target: T5, murine IL-11 (mouse, UniProt P47873 22-199); test: cell-based or functional assay; remark: listed apart in the source
T5 sequence: T1 sequence

human IL-11 [12] = biological target: T6, human IL-11 (human, UniProt P20809 22-199); test: cell-based or functional assay; remark: listed apart in the source
T6 sequence: T2 sequence

murine IL-11 [13] = biological target: T5, murine IL-11; test: SPR; limit told of 12 single-site germlining mutants; antigen not given, SPR run on human and mouse IL-11
human IL-11 [14] = biological target: T6, human IL-11; test: as above
murine IL-11 [15] = biological target: T5, murine IL-11; test: cell-based or functional assay; remark: listed apart in the source
human IL-11 [16] = biological target: T6, human IL-11; test: cell-based or functional assay; remark: listed apart in the source

B2: TPP-29520 (antibody, mouse IgG1)
heavy: QVQLVESGGGVVQPGRSLRLSCAASGFTFSHYDMHWVRQAPGKGLEWVAVISYSGSVKFYADSVKGRFTISRDNSKNTLYLQMNSLRAEDTAVYYCARTPGSHFDYWGQGTLVTVSSAKTTPPSVYPLAPGSAAQTNSMVTLGCLVKGYFPEPVTVTWNSGSLSSGVHTFPAVLQSDLYTLSSSVTVPSSTWPSETVTCNVAHPASSTKVDKKIVPRDCGCKPCICTVPEVSSVFIFPPKPKDVLTITLTPKVTCVVVDISKDDPEVQFSWFVDDVEVHTAQTQPREEQFNSTFRSVSELPIMHQDWLNGKEFKCRVNSAAFPAPIEKTISKTKGRPKAPQVYTIPPPKEQMAKDKVSLTCMITDFFPEDITVEWQWNGQPAENYKNTQPIMDTDGSYFVYSKLNVQKSNWEAGNTFTCSVLHEGLHNHHTEKSLSHSPGK
light: QSVLTQPPSASGTPGQRVTISCSGSSSNIGSNYVNWYQQLPGTAPKLLIYYDDLRPSGVPDRFSGSKSGTSASLAISGLRSEDEADYYCSAWDDSLSGVVFGGGTKLTVLGQPKSSPSVTLFPPSSEELETNKATLVCTITDFYPGVVTVDWKVDGTPVTQGMETTQPSKQSNNKYMASSYLTLTARAWERHSSYSCQVTHEGHTVEKSLSRADCS
notes: mIgG1, Lambda
Efficacy (%) (murine IL-11 [1]): 1.1%
Efficacy (%) (human IL-11 [2]): 0.3%
Kd (murine IL-11 [3]): 0.11 nM
Kd (rat IL-11 [4]): 0.29 nM
binding result (cynomolgus IL-11 [5]): no binding (tested: IL-11 up to 200 nM)
Kd (human IL-11 [6]): 0.09 nM
RGA Efficacy (%) (murine IL-11 [7]): 100%
RGA IC50 (murine IL-11 [7]): 910 pM
RGA Efficacy (%) (rat IL-11 [8]): 101%
RGA IC50 (rat IL-11 [8]): 1.3 nM
RGA Efficacy (%) (cynomolgus IL-11 [9]): 58.6%
RGA Efficacy (%) (human IL-11 [10]): 99.7%
RGA IC50 (human IL-11 [10]): 1.7 nM

B4: TPP-29522 (antibody, mouse IgG1)
heavy: B2 heavy with S54E, V57N, S102F
light: B2 light
notes: mIgG1, Lambda
Efficacy (%) (murine IL-11 [1]): 3.6%
Efficacy (%) (human IL-11 [2]): 0%
Kd (murine IL-11 [3]): 0.029 nM
Kd (rat IL-11 [4]): 0.34 nM
Kd (cynomolgus IL-11 [5]): 24 nM
Kd (human IL-11 [6]): 0.034 nM
RGA Efficacy (%) (murine IL-11 [7]): 101%
RGA IC50 (murine IL-11 [7]): 780 pM
RGA Efficacy (%) (rat IL-11 [8]): 101%
RGA IC50 (rat IL-11 [8]): 1.6 nM
RGA Efficacy (%) (cynomolgus IL-11 [9]): 52%
RGA Efficacy (%) (human IL-11 [10]): 98.6%
RGA IC50 (human IL-11 [10]): 1.6 nM

B5: TPP-31293 (antibody, IgG4, V domains shown)
VH: EVQLLESGGGLVQPGGSLRLSCAASGFTFSHYDMNWVRQAPGKGLEWVGVISYDGSNKFYADFVKGRFTISRDNSKNTLYLQMNSLRAEDTAVYYCARTPGSHFDYWGQGTLVTVSS
VL: QSVLTQPPSASGTPGQRVTISCSGSSSNIGNNAVNWYQQLPGTAPKLLIYYDDLLPSGVPDRFSGSKSGTSASLAISGLRSEDEADYYCSAWDDSLNGVVFGGGTKLTVL
notes: hIgG4 SPLE, lambda
IC50, RGA 1 (murine IL-11 [11]): 31 nM
IC50, RGA 2 (murine IL-11 [11]): 13 nM
IC50, RGA 1 (human IL-11 [12]): 58 nM
IC50, RGA 2 (human IL-11 [12]): 13 nM
Kd (murine IL-11 [13]): < 19 nM
Kd (human IL-11 [14]): < 19 nM
RGA potency (mean) (murine IL-11 [15]): < 170 nM
RGA potency (mean) (human IL-11 [16]): < 170 nM

Continued, values first:

Efficacy (%) (murine IL-11 [1]): 93%
IC50 (murine IL-11 [1]): 6.8 nM
Efficacy (%) (human IL-11 [2]): 93.3%
IC50 (human IL-11 [2]): 10 nM
Kd (murine IL-11 [3]): 2.4 nM
Kd (rat IL-11 [4]): 4.1 nM
binding result (cynomolgus IL-11 [5]): no binding (tested: IL-11 up to 200 nM)
Kd (human IL-11 [6]): 2.1 nM
RGA Efficacy (%) (murine IL-11 [7]): 88.9%
RGA IC50 (murine IL-11 [7]): 7900 pM
RGA Efficacy (%) (rat IL-11 [8]): 62.2%
RGA IC50 (rat IL-11 [8]): 14 nM
RGA Efficacy (%) (cynomolgus IL-11 [9]): 21.9%
RGA Efficacy (%) (human IL-11 [10]): 64%
B1: TPP-23580 (antibody, mouse IgG1, kappa)
heavy: EVQLVQSGAEVKKPGASVKISCKASGYTFTDYNMDWVKQAPGQRLEWIGDINPHNGGPIYNQKFTGRATLTVDKSASTAYMELSSLRSEDTAVYYCARGELGHWYFDVWGQGTTVTVSSAKTTPPSVYPLAPGSAAQTNSMVTLGCLVKGYFPEPVTVTWNSGSLSSGVHTFPAVLQSDLYTLSSSVTVPSSTWPSETVTCNVAHPASSTKVDKKIVPRDCGCKPCICTVPEVSSVFIFPPKPKDVLTITLTPKVTCVVVDISKDDPEVQFSWFVDDVEVHTAQTQPREEQFNSTFRSVSELPIMHQDWLNGKEFKCRVNSAAFPAPIEKTISKTKGRPKAPQVYTIPPPKEQMAKDKVSLTCMITDFFPEDITVEWQWNGQPAENYKNTQPIMDTDGSYFVYSKLNVQKSNWEAGNTFTCSVLHEGLHNHHTEKSLSHSPGK
light: DIVLTQSPASLALSPGERATLSCRASKSVSTSGYSYIHWYQQKPGQPPRLLIYLASNLDSGVPARFSGSGSGTDFTLNIHPLEEEDFATYYCQHSRDLPPTFGQGTKLEIKRADAAPTVSIFPPSSEQLTSGGASVVCFLNNFYPKDINVKWKIDGSERQNGVLNSWTDQDSKDSTYSMSSTLTLTKDEYERHNSYTCEATHKTSTSPIVKSFNRNEC
notes: text calls it the mouse IgG1 version of the WO2019238882 antibody; also called BSN 3C6 2.2-2.1-mIgG1Kappa

Efficacy (%) (murine IL-11 [1]): 12.1%
Efficacy (%) (human IL-11 [2]): 1.7%
Kd (murine IL-11 [3]): 0.098 nM
Kd (rat IL-11 [4]): 2.1 nM
binding result (cynomolgus IL-11 [5]): no binding (tested: IL-11 up to 200 nM)
Kd (human IL-11 [6]): 0.18 nM
RGA Efficacy (%) (murine IL-11 [7]): 103%
RGA IC50 (murine IL-11 [7]): 760 pM
RGA Efficacy (%) (rat IL-11 [8]): 98.9%
RGA IC50 (rat IL-11 [8]): 1.8 nM
RGA Efficacy (%) (cynomolgus IL-11 [9]): 60%
RGA Efficacy (%) (human IL-11 [10]): 99.2%
RGA IC50 (human IL-11 [10]): 1.9 nM
B3: TPP-29521 (antibody, mouse IgG1)
heavy: B2 heavy with S54E, V57N, S102F
light: B2 light with N35S
notes: mIgG1, Lambda
